Article PMC9034101

What was measured:
[1] = molecular target: Cy5 N-terminal-labeled WWP2 (human) (UniProt O00308); assay: MST; 10 nM N-terminal Cy5-labeled WWP2, NDP52 (up to 48 uM) or OPTN (up to 60 uM) in two-fold serial dilution; 25 mM Hepes pH 7.8, 250 mM NaCl, 1 mM TCEP, 0.5 mg/ml BSA, 0.05% Tween-20; room temperature; apparent KD, quadratic model
[2] = molecular target: PTEN (Homo sapiens) (UniProt P60484); conditions: cited from earlier work
Sequence of PTEN (Homo sapiens) (P60484 2-403): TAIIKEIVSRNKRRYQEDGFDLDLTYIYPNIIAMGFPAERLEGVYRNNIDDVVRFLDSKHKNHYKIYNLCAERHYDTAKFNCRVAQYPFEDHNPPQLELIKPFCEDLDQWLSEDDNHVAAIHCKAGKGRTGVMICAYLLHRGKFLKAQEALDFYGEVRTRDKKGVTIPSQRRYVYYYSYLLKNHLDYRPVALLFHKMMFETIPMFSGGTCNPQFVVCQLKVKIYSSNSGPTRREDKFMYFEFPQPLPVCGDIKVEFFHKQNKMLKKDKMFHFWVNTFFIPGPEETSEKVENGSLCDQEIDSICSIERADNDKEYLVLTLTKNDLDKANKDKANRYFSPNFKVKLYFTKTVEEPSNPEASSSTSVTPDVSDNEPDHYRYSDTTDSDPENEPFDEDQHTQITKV

Sequence of Optineurin (Q96CV9 whole entry): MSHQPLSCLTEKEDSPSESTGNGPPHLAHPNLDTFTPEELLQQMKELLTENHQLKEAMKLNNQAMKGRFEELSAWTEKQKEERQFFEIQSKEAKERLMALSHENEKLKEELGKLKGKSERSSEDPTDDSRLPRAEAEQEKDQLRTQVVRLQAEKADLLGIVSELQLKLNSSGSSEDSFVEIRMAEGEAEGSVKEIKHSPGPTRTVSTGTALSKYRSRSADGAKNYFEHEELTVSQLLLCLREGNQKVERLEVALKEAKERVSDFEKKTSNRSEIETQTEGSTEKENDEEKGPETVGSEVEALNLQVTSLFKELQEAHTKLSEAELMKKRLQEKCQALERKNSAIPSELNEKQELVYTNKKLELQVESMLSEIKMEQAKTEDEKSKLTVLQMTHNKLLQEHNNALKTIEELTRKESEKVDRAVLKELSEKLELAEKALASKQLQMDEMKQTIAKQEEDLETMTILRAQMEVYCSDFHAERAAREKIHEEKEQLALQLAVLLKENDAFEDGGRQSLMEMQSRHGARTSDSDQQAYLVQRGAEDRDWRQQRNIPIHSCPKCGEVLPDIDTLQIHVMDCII
Sequence of WWP2 (O00308 whole entry): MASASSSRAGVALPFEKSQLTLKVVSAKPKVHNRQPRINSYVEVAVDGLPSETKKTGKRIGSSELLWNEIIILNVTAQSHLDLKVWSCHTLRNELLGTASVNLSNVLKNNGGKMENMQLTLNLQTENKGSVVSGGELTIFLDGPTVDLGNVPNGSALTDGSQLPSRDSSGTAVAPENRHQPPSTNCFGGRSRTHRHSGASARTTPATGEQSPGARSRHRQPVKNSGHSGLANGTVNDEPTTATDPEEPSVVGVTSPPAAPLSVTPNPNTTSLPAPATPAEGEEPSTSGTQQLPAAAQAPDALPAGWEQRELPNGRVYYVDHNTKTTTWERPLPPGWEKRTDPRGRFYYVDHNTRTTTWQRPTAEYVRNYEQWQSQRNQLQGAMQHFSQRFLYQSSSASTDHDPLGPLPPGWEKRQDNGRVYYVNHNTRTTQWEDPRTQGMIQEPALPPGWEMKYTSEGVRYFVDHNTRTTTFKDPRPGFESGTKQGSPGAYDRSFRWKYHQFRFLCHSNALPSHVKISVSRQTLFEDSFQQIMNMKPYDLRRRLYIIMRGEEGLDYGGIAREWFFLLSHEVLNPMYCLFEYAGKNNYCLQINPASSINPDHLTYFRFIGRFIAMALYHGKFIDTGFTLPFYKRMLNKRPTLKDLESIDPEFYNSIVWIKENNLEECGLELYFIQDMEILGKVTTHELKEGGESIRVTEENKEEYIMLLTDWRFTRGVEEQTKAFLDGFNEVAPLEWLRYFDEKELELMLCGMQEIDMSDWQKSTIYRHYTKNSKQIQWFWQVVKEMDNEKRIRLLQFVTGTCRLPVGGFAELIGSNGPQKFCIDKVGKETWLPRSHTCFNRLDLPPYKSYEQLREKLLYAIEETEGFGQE

Row | Kd [1] | Substance | Kd [2]
1 | 39 µM | Optineurin (from UniProt Q96CV9 1-577) (natural protein) | 
2 |  | WWP2 (from UniProt O00308) | 20 µM
